Assay results as given in paper PMC11940775, “A Bifunctional Phosphoglucomutase/Phosphomannomutase from Thermococcus kodakarensis: Biophysical Analysis and Cryo-EM Structure” (Biomolecules, 2025).

Target: the molecule itself
Experiment: SEC; HiLoad 16/60 Superdex 200 pg, 50 mM HEPES pH 7.0 + 200 mM NaCl, against standard protein markers; self-association

B1: Phosphoglucomutase/phosphomannomutase from Thermococcus kodakarensis (PGMTk) (enzyme)
chain: MGKLFGTFGVRGIANEEITPEFALKIGMAFGTLLKREGRERPLVVVGRDTRVSGEMLKDALISGLLSTGCDVIDVGIAPTPAIQWATNHFNADGGAVITASHNPPEYNGIKLLEPNGMGLKKEREAIVEELFFSEDFHRAKWNEIGELRKEDIIKPYIEAIKNRVDVEAIKKRRPFVVVDTSNGAGSLTLPYLLRELGCKVVSVNAHPDGHFPARNPEPNEENLKGFMEIVKALGADFGVAQDGDADRAVFIDENGRFIQGDKTFALVADAVLRENGGGLLVTTIATSNLLDDIAKRNGAKVMRTKVGDLIVARALLENNGTIGGEENGGVIFPDFVLGRDGAMTTAKIVEIFAKSGKKFSELIDELPKYYQFKTKRHVEGDRKAIVAKVAELAEKKGYKIDTTDGTKIIFDDGWVLVRASGTEPIIRIFSEAKSEEKAREYLELGIKLLEEALKG
notes: Phosphoglucomutase/phosphomannomutase PGMTk, product of gene Tk1108 of Thermococcus kodakarensis, UniProt Q68BJ6; His6 and a TEV protease site were put upstream of the gene; also called Tk1108; TK1108; source: E. coli Rosetta 2(DE3)pLysS, purified (heat treatment at 85 °C, Ni-NTA, Superdex 200 gel filtration)
- stoichiometry N: 4
